Laboratory results: patent publication US20090180995A1, “NOVEL ANTICOAGULANT POLYPEPTIDES AND COMPLEX” (National University of Singapore, priority 2005, published 2009)
Entries after “also recorded” stand apart in the source; their conditions may differ.

Legend:
FXa = FXa (Homo sapiens, UniProt P00742); test: Serine protease specificity, FXa; assay type: biochemical; settings: FXa (0.75 nM)/S-2765
Procedure: (§1) Serine protease specificity—The selectivity profile of anticoagulant proteins and their complex was examined against 12 serine proteases—procoagulant serine proteases (FIXa, FXa, FXIa, FXIIa, plasma kallikrein and thrombin), anticoagulant serine protease (APC), fibrinolytic serine proteases (urokinase, t-PA and plasmin) and classical serine proteases (trypsin and chymotrypsin). Various concentrations of purified hemextin A/hemextin B and reconstituted hemextin AB complex were preincubated with each of the enzymes (Table 1) for a period of five minutes at a temperature of 37° C., followed by the addition of appropriate chromogenic substrate.
(§2) For studies with FXIa, kallikrein and urokinase, the appropriate substrates were determined prior to their screening against the inhibitors. For FXIa, the Vmax for the amidolytic activity corresponding to the chromogenic substrates S-2266, S-2302 and S-2366 was determined. S-2302 was the substrate with the highest Vmax and thus was used in the screening studies. Similar studies with kallikrein and urokinase were carried out with substrates S-2266, S-2302 and S-2288 for kallikrein and S-2444 and S-2484 for urokinase. In a total volume of 200 μl in the individual wells of the microtiter plate, final concentrations of FVIIa (300 nM)/S-2288, FVIIa-sTF (30 nM)/S-2288, FXa (0.75 nM)/S-2765, α-thrombin (0.66 nM)/S-2238, plasmin (2 nM)/S-2366, FIXa (3 μM)/spectrozyme®fIXa, FXIa (0.34 nM)/S-2366, FXIIa (0.4 nM)/S-2302, recombinant tissue plasminogen activator (80 nM)/S-2288, activated protein C (0.34 nM)/S-2366, urokinase/S-2444, plasma kallikrein (0.4 nM)/S-2302, trypsin (2.17 nM)/S-2222 and chymotrypsin (0.4 nM)/S-2586 were measured. The kinetic rate of substrate hydrolysis (mOD/min) was measured over 5 min.

Chymotrypsin = test: Serine protease specificity, chymotrypsin; assay type: biochemical; settings: chymotrypsin (0.4 nM)/S-2586
Procedure: as §1, §2

Plasmin = Plasmin (Homo sapiens, UniProt P00747); test: Serine protease specificity, plasmin; assay type: biochemical; settings: plasmin (2 nM)
Procedure: as §1, §2

Factor XIa = Factor XIa (Homo sapiens, UniProt P03951); test: Serine protease specificity, FXIa; assay type: biochemical; settings: FXIa (0.34 nM)
Procedure: as §1, §2

Trypsin = test: Serine protease specificity, trypsin; assay type: biochemical; settings: trypsin (2.17 nM)/S-2222
Procedure: as §1, §2

plasma [1] = test: Thrombin time; assay type: biochemical; settings: human plasma, thrombin reagent
Procedure: (§3) Anticoagulant activity—The anticoagulant activities of H. haemachatus venom and its fractions was determined by four coagulation tests using a BBL fibrometer: • 1. Recalcification time: The recalcification times were determined according to the method of Langdell et al. (25). 50 mM Tris-HCl buffer (pH 7.4) (100 μl), plasma (100 μl) and various concentrations of venom or its fraction (50 μl) were preincubated for 2 min at 37° C. Clotting was initiated by the addition of 50 μl of 50 mM CaCl2. • 2. Prothrombin time: The prothrombin times were measured according to the method of Quick (26). […] Clotting was initiated by the addition of thromboplastin with calcium reagent (150 μl) which can be purchased from Sigma (St. Louis, Mo., USA). • For studying the role of electrostatic interactions, the anticoagulant activity of a specific concentration of hemextin A (4.4 μM), hemextin B (4.4 μM) and hemextin AB complex (0.11 μM) was monitored in 50 mM Tris-HCl (pH 7.4) containing various concentrations of NaCl (35 mM to 150 mM). • For studying the role of hydrophobic interactions, the anticoagulant activity of a specific concentration of hemextin A (4.4 μM), hemextin B (4.4 μM) and hemextin AB complex (0.11 μM) was monitored in 50 mM Tris-HCl (pH 7.4) containing various concentrations of glycerol (125 mM to 250 mM). • 2. […] Thrombin time: Thrombin time was determined according to the method of Jim (28). […]

plasma [2] = test: Prothrombin time; assay type: biochemical, human; settings: for anticoagulant activity, prothrombin time: human plasma, 37° C.; for anticoagulant activity in buffers of high ionic strength: 50 mM Tris-HCl (pH 7.4) with NaCl 35 mM to 150 mM
Procedure: Briefly, prothrombin times may be measured according to the method of Quick (see Quick A J. (1935) J. Biol. Chem. 109, 73-74). 100 μl of 50 mM of Tris-HCl buffer (pH 7.4), 100 μl of plasma and 50 μL of the protein under investigation are to be incubated for 2 min at 37° C. Clotting is initiated by the addition of 150 μL of thromboplastin with calcium reagent.
Anticoagulant activity—The anticoagulant activities of H. haemachatus venom and its fractions was determined by four coagulation tests using a BBL fibrometer: • 1. Recalcification time: The recalcification times were determined according to the method of Langdell et al. (25). 50 mM Tris-HCl buffer (pH 7.4) (100 μl), plasma (100 μl) and various concentrations of venom or its fraction (50 μl) were preincubated for 2 min at 37° C. Clotting was initiated by the addition of 50 μl of 50 mM CaCl2. • 2. Prothrombin time: The prothrombin times were measured according to the method of Quick (26). 100 μl of 50 mM Tris-HCl buffer (pH 7.4), 100 μl of plasma and 50 μl of venom or its fractions were preincubated for 2 min at 37° C. Clotting was initiated by the addition of thromboplastin with calcium reagent (150 μl) which can be purchased from Sigma (St. Louis, Mo., USA). • For studying the role of electrostatic interactions, the anticoagulant activity of a specific concentration of hemextin A (4.4 μM), hemextin B (4.4 μM) and hemextin AB complex (0.11 μM) was monitored in 50 mM Tris-HCl (pH 7.4) containing various concentrations of NaCl (35 mM to 150 mM). • For studying the role of hydrophobic interactions, the anticoagulant activity of a specific concentration of hemextin A (4.4 μM), hemextin B (4.4 μM) and hemextin AB complex (0.11 μM) was monitored in 50 mM Tris-HCl (pH 7.4) containing various concentrations of glycerol (125 mM to 250 mM). • 2. Stypven time: Stypven time measurements were determined according to the method of Hougie (27). Plasma (100 μl), 50 mM Tris-HCl buffer (pH 7.4) (100 μl) and RVV (0.01 μg in 100 μl) and individual proteins or the reconstituted complex (50 μl) were preincubated for 2 min at 37° C. Clotting was initiated by the addition of 50 mM CaCl2 (50 μl). • 3. Thrombin time: Thrombin time was determined according to the method of Jim (28). Individual proteins or the reconstituted complex were incubated with 100 μl of plasma and 100 μl of 50 mM Tris-HCl buffer (pH 7.4) for 2 min at 37° C. in a total volume 250 μl. Clotting was initiated by the addition of standard thrombin reagent (0.01 NIH units in 50 μl).

plasma [3] = test: Stypven time; assay type: biochemical; settings: human plasma, RVV
Procedure: as §3

FVIIa = target: T1, FVIIa (Homo sapiens, UniProt P08709); test: FVIIa amidolytic activity; assay type: biochemical; settings: absence of sTF; for inhibition of FVIIa amidolytic activity: FVIIa (300 nM)/S-2288
T1 construct: from tissue; host or cells: human plasma
T1 sequence (P08709 61-212 limits assumed): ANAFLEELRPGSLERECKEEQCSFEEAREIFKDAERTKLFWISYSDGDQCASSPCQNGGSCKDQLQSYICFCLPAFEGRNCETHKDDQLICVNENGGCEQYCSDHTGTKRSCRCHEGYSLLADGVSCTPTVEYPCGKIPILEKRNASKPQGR
T1 sequence (P08709 213-466 limits assumed): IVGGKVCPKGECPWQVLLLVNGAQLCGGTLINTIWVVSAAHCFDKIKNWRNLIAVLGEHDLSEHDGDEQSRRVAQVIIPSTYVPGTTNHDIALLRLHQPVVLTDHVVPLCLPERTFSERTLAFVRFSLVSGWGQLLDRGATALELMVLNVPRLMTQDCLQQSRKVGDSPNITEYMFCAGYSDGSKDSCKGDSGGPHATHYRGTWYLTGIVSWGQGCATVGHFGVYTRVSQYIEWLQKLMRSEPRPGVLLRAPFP
Procedure: as §1, §2

Chain of Plasmin (P00747 581-810 limits assumed, species assumed): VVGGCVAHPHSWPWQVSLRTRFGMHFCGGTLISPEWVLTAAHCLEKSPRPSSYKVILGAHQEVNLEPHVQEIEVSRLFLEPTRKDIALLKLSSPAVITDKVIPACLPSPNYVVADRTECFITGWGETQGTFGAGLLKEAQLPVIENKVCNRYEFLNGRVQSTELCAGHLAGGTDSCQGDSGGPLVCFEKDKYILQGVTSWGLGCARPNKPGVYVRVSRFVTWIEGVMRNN
Chain of Plasmin (P00747 97-580 limits assumed, species assumed): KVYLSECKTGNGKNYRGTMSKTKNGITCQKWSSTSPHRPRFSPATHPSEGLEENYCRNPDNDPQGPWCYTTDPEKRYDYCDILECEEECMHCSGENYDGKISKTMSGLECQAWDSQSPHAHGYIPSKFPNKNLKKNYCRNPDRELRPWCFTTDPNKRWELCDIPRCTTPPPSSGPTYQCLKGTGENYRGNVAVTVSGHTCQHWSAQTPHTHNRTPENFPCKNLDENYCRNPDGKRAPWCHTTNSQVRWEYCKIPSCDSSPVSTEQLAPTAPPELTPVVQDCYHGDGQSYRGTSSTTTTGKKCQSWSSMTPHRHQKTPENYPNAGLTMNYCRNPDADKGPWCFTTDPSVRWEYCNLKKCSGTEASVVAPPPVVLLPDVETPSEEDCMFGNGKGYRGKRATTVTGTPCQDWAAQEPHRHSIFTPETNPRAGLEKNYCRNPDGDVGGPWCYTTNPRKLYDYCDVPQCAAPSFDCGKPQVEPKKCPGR
Chain of Factor XIa (P03951 388-625 limits assumed): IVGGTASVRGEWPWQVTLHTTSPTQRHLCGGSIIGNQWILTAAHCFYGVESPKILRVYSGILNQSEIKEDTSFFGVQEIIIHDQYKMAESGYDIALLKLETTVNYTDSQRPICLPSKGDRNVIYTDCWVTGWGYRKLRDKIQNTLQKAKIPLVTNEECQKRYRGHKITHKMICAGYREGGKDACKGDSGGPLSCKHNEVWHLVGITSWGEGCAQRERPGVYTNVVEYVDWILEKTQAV
Chain of Factor XIa (P03951 19-387 limits assumed): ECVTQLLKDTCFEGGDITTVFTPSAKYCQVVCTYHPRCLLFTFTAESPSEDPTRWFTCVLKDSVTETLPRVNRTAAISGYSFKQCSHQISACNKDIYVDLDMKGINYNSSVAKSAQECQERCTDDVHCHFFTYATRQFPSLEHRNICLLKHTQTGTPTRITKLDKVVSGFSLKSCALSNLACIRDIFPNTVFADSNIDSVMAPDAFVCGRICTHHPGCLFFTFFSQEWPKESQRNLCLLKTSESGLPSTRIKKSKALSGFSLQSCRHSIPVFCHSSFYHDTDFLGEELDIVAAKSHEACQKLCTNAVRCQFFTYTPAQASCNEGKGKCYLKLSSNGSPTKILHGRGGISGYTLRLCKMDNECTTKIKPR
Chain of FXa (P00742 41-179 limits assumed): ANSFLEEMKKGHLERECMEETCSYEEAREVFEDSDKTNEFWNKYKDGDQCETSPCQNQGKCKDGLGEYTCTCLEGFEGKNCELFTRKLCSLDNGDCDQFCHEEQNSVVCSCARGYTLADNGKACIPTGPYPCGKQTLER
Chain of FXa (P00742 235-488 limits assumed): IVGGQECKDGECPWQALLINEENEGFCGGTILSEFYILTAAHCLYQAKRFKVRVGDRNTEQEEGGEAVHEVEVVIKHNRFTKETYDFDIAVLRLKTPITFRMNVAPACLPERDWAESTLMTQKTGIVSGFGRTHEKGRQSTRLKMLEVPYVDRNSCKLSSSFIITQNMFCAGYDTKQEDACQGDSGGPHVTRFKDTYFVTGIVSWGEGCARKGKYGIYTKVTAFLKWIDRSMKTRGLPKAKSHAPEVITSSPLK

B1: hemextin B (protein)
chain: LKCKNKVVPFLKCKNKVVPFLCYKMTLKKVPKIPIKRGCTDACPKSSLLVNVMCCKTDKCN
- Observed Effect, FXa amidolytic activity (FXa): no inhibitory activity
- Observed Effect, chymotrypsin amidolytic activity (Chymotrypsin): no inhibitory activity
- Observed Effect, plasmin amidolytic activity (Plasmin): no inhibitory activity
- Observed Effect, Factor XIa amidolytic activity (Factor XIa): no inhibitory activity
- Observed Effect, trypsin amidolytic activity (Trypsin): no inhibitory activity
- clotting time, thrombin time (plasma [1]): did not prolong clotting times
- anticoagulant activity of hemextin A with increasing hemextin B concentrations (plasma [2]; hemextin A constant at 4.4 μM): increases with the increasing concentrations of hemextin B until the ratio reaches 1:1
- anticoagulant activity, prothrombin time (plasma [2]): did not show any significant effect on clotting time; also recorded: did not prolong clotting times; also recorded: no anticoagulant activity
- clotting time, Stypven time (plasma [3]): did not prolong clotting times
- inhibition of FVIIa amidolytic activity (FVIIa): did not exhibit any inhibitory activity

B2: hemextin A (protein)
chain: LKCKNKLVPFLSKTCPEGKNLCYKMTMLKMPKIPIKRGCTDACPKSSLLVKVVCCNKDKCN
- Observed Effect, FXa amidolytic activity (FXa): no inhibitory activity
- Observed Effect, chymotrypsin amidolytic activity (Chymotrypsin): no inhibitory activity
- Observed Effect, plasmin amidolytic activity (Plasmin): no inhibitory activity
- Observed Effect, Factor XIa amidolytic activity (Factor XIa): no inhibitory activity
- Observed Effect, trypsin amidolytic activity (Trypsin): no inhibitory activity
- clotting time, thrombin time (plasma [1]): did not prolong
- anticoagulant activity in buffers of high ionic strength (plasma [2]): did not affect the anticoagulant activity
- anticoagulant activity, prothrombin time (plasma [2]): mild anticoagulant activity
- clotting time, Stypven time (plasma [3]): did not prolong
- IC50 (FVIIa): ~105 nM
- inhibition of FVIIa amidolytic activity (FVIIa): potent inhibitory activity

B3: hemextin AB complex: synergistic 1:1 tetrameric complex of hemextin A and hemextin B, reconstituted from equimolar proteins (protein)
chain 1: LKCKNKLVPFLSKTCPEGKNLCYKMTMLKMPKIPIKRGCTDACPKSSLLVKVVCCNKDKCN
chain 2: LKCKNKVVPFLKCKNKVVPFLCYKMTLKKVPKIPIKRGCTDACPKSSLLVNVMCCKTDKCN
- Observed Effect, FXa amidolytic activity (FXa): no inhibitory activity
- Observed Effect, chymotrypsin amidolytic activity (Chymotrypsin): no inhibitory activity
- Observed Effect, plasmin amidolytic activity (Plasmin): no inhibitory activity
- Observed Effect, Factor XIa amidolytic activity (Factor XIa): no inhibitory activity
- Observed Effect, trypsin amidolytic activity (Trypsin): no inhibitory activity
- anticoagulant activity in buffers of high ionic strength (plasma [2]): decreased with the increase in ionic strength up to 100 mM NaCl
- anticoagulant activity in buffers containing glycerol (plasma [2]; 50 mM Tris-HCl (pH 7.4) with glycerol 125 mM to 250 mM): decreased with the increase in glycerol concentration
- anticoagulant activity at 125 mM glycerol (plasma [2]; 125 mM glycerol): no decrease in the anticoagulant activity
- anticoagulant activity at 250 mM glycerol (plasma [2]; 250 mM glycerol): higher than that of anticoagulant effect of hemextin A alone
- anticoagulant activity, prothrombin time (plasma [2]): potent anticoagulant activity
- anticoagulant activity, prothrombin time (plasma [2]; listed as equimolar mixture of hemextin A and B): more potent anticoagulant activity
- IC50 (FVIIa): ~105 nM
- inhibition of FVIIa amidolytic activity (FVIIa): potent inhibitory activity
